These are literature values, as cited in patent publication US20080031874A1, “Treatment of endotoxemia using endotoxin neutralizing agents” (priority 2006, published 2008).

B1: LBP: glycoprotein present in serum that recognizes the lipid A region of LPS (protein, UniProt P18428 26-481, looked up)
Lipopolysaccharide-binding …: ANPGLVARITDKGLQYAAQEGLLALQSELLRITLPDFTGDLRIPHVGRGRYEFHSLNIHSCELLHSALRPVPGQGLSLSISDSSIRVQGRWKVRKSFFKLQGSFDVSVKGISISVNLLLGSESSGRPTVTASSCSSDIADVEVDMSGDLGWLLNLFHNQIESKFQKVLESRICEMIQKSVSSDLQPYLQTLPVTTEIDSFADIDYSLVEAPRATAQMLEVMFKGEIFHRNHRSPVTLLAAVMSLPEEHNKMVYFAISDYVFNTASLVYHEEGYLNFSITDDMIPPDSNIRLTTKSFRPFVPRLARLYPNMNLELQGSVPSAPLLNFSPGNLSVDPYMEIDAFVLLPSSSKEPVFRLSVATNVSATLTFNTSKITGFLKPGKVKVELKESKVGLFNAELLEALLNYYILNTFYPKFNDKLAEGFPLPLLKRVQLYDLGLQIHKDFLFLGANVQYMRV
As for B1, the “complexes with rough and smooth form LPS” value is listed as “high affinity, 1:1 stoichiometric complexes”. In the series with gram-negative bacteria, the “direct cytotoxicity for gram-negative bacteria” value was “not directly cytotoxic”.
